{"source": "paper PMC6441084", "molecular_target": "microtubules (MTs) polymerised from purified tubulin (Cytoskeleton, # T240) (UniProt P02550)", "data": [{"substance": "Diaph2 mutant lacking the FH2-domain (ΔFH2-Diaph2), GST-fusion protein (from UniProt O60879 1-1101) (natural protein)", "values": [{"measurement": "MT-polymerization (turbidity at 340 nm, no taxol; 2 µM tubulin, 0.2 µM Diaph2 protein), fold against the control", "result": 6, "unit": "fold"}]}]}
